Measurements published in paper PMC8983844.

Molecular target: protein A (UniProt P38507)
Assay: spectral-domain phase-sensitive interferometry (SD-PSI), label-free; protein A (0.5 mg/ml) adsorbed on a dopamine layer on a glass chip (0.17 or 0.20 mm) and blocked with protein-free blocking solution; IgG solution (20 ug/ml mouse IgG; gradient of 10, 20, 30, 50 ug/ml IgG) passed through the flow chamber; PBS washes; reference path without protein A

Work on mouse IgG (antibody) yielded a phase change at 20 ug/ml IgG of 0.04 rad, a thickness variation at 10 ug/ml IgG of 1.86 nm and a thickness variation at 20 ug/ml IgG of 3.76 nm. It also gave a thickness variation at 30 ug/ml IgG of 5.45 nm and a thickness variation at 50 ug/ml IgG of 10.1 nm.
